T1: GFP-Rad55-Rad57 complex (His6-GFP-Rad55 and FLAG-Rad57) (S. cerevisiae, UniProt P38953 1-406; P25301 1-460)
T1 sequence (looked up) 1: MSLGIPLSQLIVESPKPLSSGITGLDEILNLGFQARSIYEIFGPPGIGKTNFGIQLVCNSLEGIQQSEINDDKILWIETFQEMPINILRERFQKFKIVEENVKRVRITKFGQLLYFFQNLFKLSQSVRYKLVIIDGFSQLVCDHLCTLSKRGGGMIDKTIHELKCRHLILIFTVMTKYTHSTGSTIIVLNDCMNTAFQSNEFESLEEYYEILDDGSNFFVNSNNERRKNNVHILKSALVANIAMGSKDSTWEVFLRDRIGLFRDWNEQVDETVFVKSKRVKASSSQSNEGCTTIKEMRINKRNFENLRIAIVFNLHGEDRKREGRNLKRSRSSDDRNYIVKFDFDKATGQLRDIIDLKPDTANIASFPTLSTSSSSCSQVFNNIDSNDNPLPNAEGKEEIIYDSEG
T1 sequence (looked up) 2: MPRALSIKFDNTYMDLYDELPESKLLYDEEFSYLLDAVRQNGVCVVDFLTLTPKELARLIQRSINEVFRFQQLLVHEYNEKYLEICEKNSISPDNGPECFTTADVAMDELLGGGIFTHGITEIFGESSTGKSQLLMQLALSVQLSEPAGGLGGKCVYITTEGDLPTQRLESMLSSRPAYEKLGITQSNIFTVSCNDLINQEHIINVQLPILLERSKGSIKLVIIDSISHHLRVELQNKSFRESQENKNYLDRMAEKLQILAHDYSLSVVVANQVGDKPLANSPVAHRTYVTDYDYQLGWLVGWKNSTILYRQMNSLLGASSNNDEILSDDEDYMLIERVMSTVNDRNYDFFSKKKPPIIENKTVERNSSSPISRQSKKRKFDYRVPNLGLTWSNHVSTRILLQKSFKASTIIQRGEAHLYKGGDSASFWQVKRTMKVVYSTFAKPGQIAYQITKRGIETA

B1: Rad51 (natural protein, S. cerevisiae, UniProt P25454 1-400, looked up)
chain: MSQVQEQHISESQLQYGNGSLMSTVPADLSQSVVDGNGNGSSEDIEATNGSGDGGGLQEQAEAQGEMEDEAYDEAALGSFVPIEKLQVNGITMADVKKLRESGLHTAEAVAYAPRKDLLEIKGISEAKADKLLNEAARLVPMGFVTAADFHMRRSELICLTTGSKNLDTLLGGGVETGSITELFGEFRTGKSQLCHTLAVTCQIPLDIGGGEGKCLYIDTEGTFRPVRLVSIAQRFGLDPDDALNNVAYARAYNADHQLRLLDAAAQMMSESRFSLIVVDSVMALYRTDFSGRGELSARQMHLAKFMRALQRLADQFGVAVVVTNQVVAQVDGGMAFNPDPKKPIGGNIMAHSSTTRLGFKKGKGCQRLCKVVDSPCLPEAECVFAIYEDGVGDPREEDE

How the values were obtained:
[1] = target: T1, GFP-Rad55-Rad57 complex (His6-GFP-Rad55 …); experiment: single-molecule ssDNA curtain
Rad51 = target: B1; experiment: single-molecule ssDNA curtain

Binder | koff [1] | binding result (Rad51)
B1 | 0.00758 s⁻¹ | 
Rad51-K191R (natural protein, S. cerevisiae, UniProt P25454 1-400, looked up) MSQVQEQHISESQLQYGNGSLMSTVPADLSQSVVDGNGNGSSEDIEATNGSGDGGGLQEQAEAQGEMEDEAYDEAALGSFVPIEKLQVNGITMADVKKLRESGLHTAEAVAYAPRKDLLEIKGISEAKADKLLNEAARLVPMGFVTAADFHMRRSELICLTTGSKNLDTLLGGGVETGSITELFGEFRTGRSQLCHTLAVTCQIPLDIGGGEGKCLYIDTEGTFRPVRLVSIAQRFGLDPDDALNNVAYARAYNADHQLRLLDAAAQMMSESRFSLIVVDSVMALYRTDFSGRGELSARQMHLAKFMRALQRLADQFGVAVVVTNQVVAQVDGGMAFNPDPKKPIGGNIMAHSSTTRLGFKKGKGCQRLCKVVDSPCLPEAECVFAIYEDGVGDPREEDE | 0.0058 s⁻¹ | 
Hed1-GFP (natural protein, S. cerevisiae, UniProt Q03937 1-162, looked up) MQQRSNRRSCSYIPLGVHNNAEKSLCTEVAPARKNKRSITTSPIVNINVVERRLFNLELEKQQLRAKNLSENTGGGSPNGGAYLDAKKGVREQDQYQGGPSKELDRLQPPPSMKKSPPRKKKSLKDLIYETNKTFYQVDSNKVKYKVGLSKKQLLPSKTVDN |  | binds

Reference: publication PMC8262405 (Molecular cell, 2021)
